Where “and” joins values, the source holds several entries; their conditions need not be identical. Equal values may be shown once.
Target: proinsulin 2 (mouse (endogenous in MIN6))
Assay: non-reducing SDS-PAGE of immunoprecipitates (disulfide-linked forms) + mass spectrometry of the excised band; MIN6 cells treated with 50 µM olanzapine; pulse-chase, immunoprecipitation with anti-insulin #8138, non-reducing SDS-PAGE and autoradiography; for mass spectrometry cells were lysed in 1% NP40 with 10 mM NEM and the HMP-1 band was excised

stoichiometry N: 2 and 3
Substance: proinsulin 2 (natural protein)
